Laboratory results published in PMC11429872 (bioRxiv, 2024).

Target: F-actin (rabbit, UniProt P68135 1-377)
Experiment: co-sedimentation

Kd | Binder
24.6 ± 12 µM | β-III-spectrin-FLAG fragment (amino acids 1-1066), wild-type (domain or fragment) MSSTLSPTDFDSLEIQGQYSDINNRWDLPDSDWDNDSSSARLFERSRIKALADEREAVQKKTFTKWVNSHLARVTCRVGDLYSDLRDGRNLLRLLEVLSGEILPKPTKGRMRIHCLENVDKALQFLKEQKVHLENMGSHDIVDGNHRLTLGLVWTIILRFQIQDISVETEDNKEKKSAKDALLLWCQMKTAGYPNVNVHNFTTSWRDGLAFNAIVHKHRPDLLDFESLKKCNAHYNLQNAFNLAEKELGLTKLLDPEDVNVDQPDEKSIITYVATYYHYFSKMKALAVEGKRIGKVLDHAMEAERLVEKYESLASELLQWIEQTIVTLNDRQLANSLSGVQNQLQSFNSYRTVEKPPKFTEKGNLEVLLFTIQSKLRANNQKVYTPREGRLISDINKAWERLEKAEHERELALRTELIRQEKLEQLAARFDRKAAMRETWLSENQRLVSQDNFGLELAAVEAAVRKHEAIETDIVAYSGRVQAVDAVAAELAAERYHDIKRIAARQHNVARLWDFLRQMVAARRERLLLNLELQKVFQDLLYLMDWMEEMKGRLQSQDLGRHLAGVEDLLQLHELVEADIAVQAERVRAVSASALRFCNPGKEYRPCDPQLVSERVAKLEQSYEALCELAAARRARLEESRRLWRFLWEVGEAEAWVREQQHLLASADTGRDLTGALRLLNKHTALRGEMSGRLGPLKLTLEQGQQLVAEGHPGASQASARAAELQAQWERLEALAEERAQRLAQAASLYQFQADANDMEAWLVDALRLVSSPELGHDEFSTQALARQHRALEEEIRSHRPTLDALREQAAALPPTLSRTPEVQSRVPTLERHYEELQARAGERARALEAALALYTMLSEAGACGLWVEEKEQWLNGLALPERLEDLEVVQQRFETLEPEMNTLAAQITAVNDIAEQLLKANPPGKDRIVNTQEQLNHRWQQFRRLADGKKAALTSALSIQNYHLECTETQAWMREKTKVIESTQGLGNDLAGVLALQRKLAGTERDLEAIAARVGELTREANALAAGHPAQAVAINARLREVQTGWEDLRATMRRREESLGEARR
34.9 ± 14.4 µM | β-III-spectrin-FLAG fragment (amino acids 1-1066), R480W (domain or fragment) MSSTLSPTDFDSLEIQGQYSDINNRWDLPDSDWDNDSSSARLFERSRIKALADEREAVQKKTFTKWVNSHLARVTCRVGDLYSDLRDGRNLLRLLEVLSGEILPKPTKGRMRIHCLENVDKALQFLKEQKVHLENMGSHDIVDGNHRLTLGLVWTIILRFQIQDISVETEDNKEKKSAKDALLLWCQMKTAGYPNVNVHNFTTSWRDGLAFNAIVHKHRPDLLDFESLKKCNAHYNLQNAFNLAEKELGLTKLLDPEDVNVDQPDEKSIITYVATYYHYFSKMKALAVEGKRIGKVLDHAMEAERLVEKYESLASELLQWIEQTIVTLNDRQLANSLSGVQNQLQSFNSYRTVEKPPKFTEKGNLEVLLFTIQSKLRANNQKVYTPREGRLISDINKAWERLEKAEHERELALRTELIRQEKLEQLAARFDRKAAMRETWLSENQRLVSQDNFGLELAAVEAAVRKHEAIETDIVAYSGWVQAVDAVAAELAAERYHDIKRIAARQHNVARLWDFLRQMVAARRERLLLNLELQKVFQDLLYLMDWMEEMKGRLQSQDLGRHLAGVEDLLQLHELVEADIAVQAERVRAVSASALRFCNPGKEYRPCDPQLVSERVAKLEQSYEALCELAAARRARLEESRRLWRFLWEVGEAEAWVREQQHLLASADTGRDLTGALRLLNKHTALRGEMSGRLGPLKLTLEQGQQLVAEGHPGASQASARAAELQAQWERLEALAEERAQRLAQAASLYQFQADANDMEAWLVDALRLVSSPELGHDEFSTQALARQHRALEEEIRSHRPTLDALREQAAALPPTLSRTPEVQSRVPTLERHYEELQARAGERARALEAALALYTMLSEAGACGLWVEEKEQWLNGLALPERLEDLEVVQQRFETLEPEMNTLAAQITAVNDIAEQLLKANPPGKDRIVNTQEQLNHRWQQFRRLADGKKAALTSALSIQNYHLECTETQAWMREKTKVIESTQGLGNDLAGVLALQRKLAGTERDLEAIAARVGELTREANALAAGHPAQAVAINARLREVQTGWEDLRATMRRREESLGEARR
